Laboratory results taken from the nanobody polyreactivity screen of Harvey et al. (2022).

Assay: yeast display, Sf9 membrane polyspecificity reagent, FACS + sequencing; frameworks hold sequencing errors
In short: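 Nanobodies came from a synthetic yeast display library in Saccharomyces cerevisiae BJ5465, induced with galactose for 36–48 hours and stained for 1 hour at 4 °C with 10% biotinylated, detergent-solubilized Sf9 membrane reagent. Cells were enriched on streptavidin microbeads and then FACS-sorted, with low and high (top ~1%) gates set on anti-HA fluorescence for expression and streptavidin fluorescence for reagent binding. Each polyreactivity label reflects the gate a clone came from. Genes were amplified by colony PCR, sequenced by MiSeq 2 × 250 and filtered by CDR length.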

Row | Sequence | polyreactivity (PSR sort gate)
1 | QVQLVESGGGLVQAGGSLRLSCAPSGSIFDYYVRGWSRQAPGKERELVAAISWSGASTYYADSVKGRFTISRDNAKNTVYLQITSLKPEDTAVYYCAADYGVNTLIDYDYWGQGTQVTVSS | low polyreactivity
2 | QVQLVESGGGLVQAGGSLRLSCAPSGSIFERYAMGWYRHAPGKERELVAAISWRGGSTYYADSVKGRFTISRDNAKNTVYLQMNSLIQEDTAVYYCAADSRTCYYYWGQGTQVTVST | high polyreactivity
3 | QVQLVESGGGLVQAGGSLRLSCAPSGSIFGGYAMGWYRQAPGKERELVAAITWGGGSTYYADSVKGRFTISRDNAKNTVYLQMISLKPEATAVYYCAADRSWYDWEDDYWGQGTQVTVSS | low polyreactivity
4 | QVQLVESGGGLVQAGGSLRLSCAPSGSIFNRNVMGWYRQAPGKERELVAAITRGGRTSYADSVKGRFTISRDNAKNTVYLQMNSLKPEDTAVYYCAARRGYWVVYWGQGTQVTVSS | high polyreactivity
5 | QVQLVESGGGLVQAGGSLRLSCAPSGSIFPSYAMGWYRQAPGKERELVAAISRSAGSTYYADSVKGRFTISRDNAKNTVYLQMNSLKPEDTAVYYCAADGYSSRYGYDYWGQGTQVTVSS | low polyreactivity
6 | QVQLVESGGGLVQAGGSLRLSCAPSGSIFRGYTMGWYRQAPVKERELVAAISWSGGSTYYADSVKGRFTISRDNAKNTVYLQMNSLKPEDTAVYYCAAGDYYHRIFLWYDFWGQGTQVNVSS | low polyreactivity
7 | QVQLVESGGGLVQAGGSLRLSCAPSGSIFSYYDMGGYRQAPGKERELVAGISRGGSTNYADSVKGRFTISRDNAKNTVYLQMNSLKPEDTAVYYCNADQSSRTFPFRLSRRSWLYGYWGQGSQVTVSS | low polyreactivity
8 | QVQLVESGGGLVQAGGSLRLSCAPSGSIFYINAMAWYRQAPGKERELVAAITSDGSTYYADSVKGRFTISRDNAKNTVYLQMNSLKPVDTAVYYFAADMTSDQYLYYWYWFYSWGQGTQVTVSS | low polyreactivity
9 | QVQLVESGGGLVQAGGSLRLSCAPSGSIFYVYARGWYRQAPGKERQLVATIPRVGRTYYADSVKGRFTISRDNAKNTVYLQRNSLKPEDTAVYYCATRYGGRSYKYDYWGQGTQVTVSS | high polyreactivity
10 | QVQLVESGGGLVQAGGSLRLSCAPSGSIVRGYAMAWYRQAPGKERELVAAINSSGTRTYYADSVKGRFTISRDNAKNTVYFQLYSLKPEDSAVYYCAARAVSEYFVVPFYYWGQGTQVTVSS | high polyreactivity
11 | QVQLVESGGGLVQAGGSLRLSCAPSGSTFEHYTMGWYRQAPGKERELVAAISRRGGRTYYADSVKGRFTISRDNAKNTVYLQMNSLKPEDTAVYYCNAPVYTRKSIDYDYCGQGTQVTVSS | high polyreactivity
12 | QVQLVESGGGLVQAGGSLRLSCAPSGSTFFWYSMGWYRQAPGKERELVARISRRSGSTYYADSVKGRFTISRDNAKNTVYLQMNSLIPEDTAVYYCNARAVGAPGSVRYDYWGQGTQVTVSS | low polyreactivity
13 | QVQLVESGGGLVQAGGSLRLSCAPSGSTFLSYVMGWYRQAPGKERELVAAITGTGGRTYYADSVKGRFTISRDNAKNTVYLQMNCLKTEDTAVYYCTAYRNHGYDYWGQGTQVTVSS | high polyreactivity
14 | QVQLVESGGGLVQAGGSLRLSCAPSGSTFRTYTMGWYIQAPGKERELVAAITGRGGSTYYADSVKGRFTISRDTAKNTVYFQMNSLKREDTAVYYCAALYGGQTKHDFWGQGTQVTVSS | low polyreactivity
15 | QVQLVESGGGLVQAGGSLRLSCAPSGSTFYSYVMGWYRQATGKERELVAVISNDGSTNYADSVKGRFTISRDNAKNTVYLQMNSLKPEDTAVYYCAALKFVRAYRYYYWGQGTQVTVSS | low polyreactivity
16 | QVQLVESGGGLVQAGGSLRLSCAPSGSTINQYAMGWYRQAPGKESELVAAITRRGGSTYYADSVKGRFTISRDNAKNTVYLQMNSLKPEDTAVYYCAAAYPYTTVSYDYWGQGTQVTVSS | high polyreactivity
17 | QVQLVESGGGLVQAGGSLRLSCAPSGSTIVRYAMGWYRQAPGKERELVAAISGSGGTTYYADSVKGRFTISRDNAKNTVYLQMNSLKPEDTAVYYCATRISAMDYWGQGTQVTVSS | high polyreactivity
18 | QVQLVESGGGLVQAGGSLRLSCAPSGSTLYRNAMGWYRQAPGQDRELVAAINYRGTRTYDADSVKGRFTISRDTAKNTVYLQMNSLQPEDTAVYFCAKDYSQFVTYPYDYWGQGTQVTVSS | low polyreactivity
19 | QVQLVESGGGLVQAGGSLRLSCASSGFIFSSYAMGWYRQAPGKERELVAAISLRSTTTYYADSVKGRFTISRDNAKNSVYLQMNSLKPEDTAVDYCAKGGSRDRYGYWGQGTQVTVSS | high polyreactivity
20 | QVQLVESGGGLVQAGGSLRLSCASSGFIFWYYAMGWYRQAPGKERELVAAISSGDSKNYADSVKGRFTISRDNAKNTVYLQMNCLKPEDTAVYYCAARQPRTQAVYEGYYWGHGTQVTVSS | high polyreactivity
21 | QVQLVESGGGLVQAGGSLRLSCASSGFIIYSYAMGWYRQAPGKERELVAVISSRGGTTYYADSVKGRFTISRDNAKNTVYLQMNSLKPEDTAVYYCAADVWGPYDYWGQGTQVTVSS | low polyreactivity

Row | Sequence | polyreactivity (PSR sort gate)
22 | QVQLVESGGGLVQAGGSLRLSCASSGFTFGYYTKGWYRQAPGKERELVAAITSGGGTYYADSVKGRFTISRDNAKNTVYLQMKSLKPEDTAVYYCATTPGLYKVSSRYGYWGQGTQVTVSS | high polyreactivity
23 | QVQLVESGGGLVQAGGSLRLSCASSGFTFTANDMGWYRKAPGKERELVAAISWSGDSTYYADSVKGRFTISRDNAKNTVYLQMNRLIPEDTAVYYCNVVFEFLSDGYYSYDYWVQGTQVTVSS | low polyreactivity
24 | QVQLVESGGGLVQAGGSLRLSCASSGFTFYKYAMGWYRQAPGKERELVAAITRGDSTYYADSVKGRFTISRDNAKNTVYLQMNSLKPEDTAVYYCNAVFSYRLFNYWGQGTQVTVSS | high polyreactivity
25 | QVQLVESGGGLVQAGGSLRLSCASSGFTFYSYAMGWYRQAPGKERELVAAISKRGGSTYYADSVKGRFTISRDNAKNTVYLQMNSLQPEDTAVYYCNADYPYYYGYDYWGQGTQVTVSS | high polyreactivity
26 | QVQLVESGGGLVQAGGSLRLSCASSGFTLYANAMGGYRQAPGKERELVADISESGSSTSYADSVKGRFTISRDNAKNTVYLQMKSLKPEDTAVYYCYDYWVQGTQVTVSS | low polyreactivity
27 | QVQLVESGGGLVQAGGSLRLSCASSGFTSWDNDMGWYRQAPGKERELVAAISRGGSTNYADSVKGRFTISRDNAKDTVYLQMNSLKPVDTAVYYCNADFAPWDKQDYPYDYDYWGQGTQVTVSS | low polyreactivity
28 | QVQLVESGGGLVQAGGSLRLSCASSGFTYGTNAMVWYRQAPGKERELVAAISSRGGSTYYADSVKGRFTISRDNAKNTVYLLMNSLKPEDTAVYYCARRVARRQHEYGYWGQGTQVTVSS | high polyreactivity
29 | QVQLVESGGGLVQAGGSLRLSCASSGGIFASNVMGWYRQAPGKERELVAAISSITGSTYYADSVKGRFTISRDNAKNTVYLQMNSLKPEDTAVYYCAAYVQFAKIRFDYWGQGTQVTVSS | high polyreactivity
30 | QVQLVESGGGLVQAGGSLRLSCASSGGTLFQNAMGWYRQAPGKESELVATIRVSGGITYYADSVKGRFTISRDNAKNTVYFQMNSLNPEDTAVYYCAKDSADSRAVGDVMTFDYWGQGTQVTVSS | low polyreactivity
31 | QVQLVESGGGLVQAGGSLRLSCASSGITFAKNAMGRYRQAPGKERELVAVITNTNYADSVKGRFTISRDNAKNTVYLQMNSLKPEDTAVYYCAVDGYGWYFARSWLRYYYWGQGTQVTVSS | low polyreactivity
32 | QVQLVESGGGLVQAGGSLRLSCASSGITFRRYTMVWYRQAPGKERELVAAISRIGGSTYYADSVKGRFTISRDNAKNTVYLQMNSLKPEDTAVYYCATYYGGSGYDYWGQGTEVTVSS | high polyreactivity
33 | QVQLVESGGGLVQAGGSLRLSCASSGITLRYYAMGWYRQAPGKERELVAAISSGGRTKYADSVKGRFTISRDNAKNTVYLQMNSLKPENTAVSYCGARKPYVTHTIDVLQAHDYWGQGTQVTVSS | high polyreactivity
34 | QVQLVESGGGLVQAGGSLRLSCASSGLIFKKYTIGWYRQGPGKERELVASISKSGGSTYYADSVKGRFTISRDNAKNTVYLQMNSLNPEDTAVYYCNSVNHYIGFDYWGQGTQVTVSS | low polyreactivity
35 | QVQLVESGGGLVQAGGSLRLSCASSGLIFRVYNMGWYRQAPGKERELVAAITGRGGRTYYADSVKGRFTISRDNAKNTVYLQMNSLKPEDTSVYYCATGGRFQQAAYTGFNYWGQGTQVTVSS | high polyreactivity
36 | QVQLVESGGGLVQAGGSLRLSCASSGLIFWKYAMVWYRQAPGKERELVAAIRKSVGSTYYADSVKGRFTISRDNAKNTVFLQMNSLKPEDTAVYFCAAVYAGVGSQVKPDYCGQGTQVTVSS | high polyreactivity
37 | QVQLVESGGGLVQAGGSLRLSCASSGLTFWRYVMGWYRQAPGKESELVATISIGGSTNYADSVKGRFTISRDNAKNTVYLQMNSLKPEDTAVYYCAAKFRGDVFPYYYWGQGTQVTVSS | high polyreactivity
38 | QVQLVESGGGLVQAGGSLRLSCASSGPIIFAYAMGWYRQAQGKEREFVAAISDNDGSTYYADSVKGRFTISRDNAKNSVYLQMNSLKPEDTAVYYCNADLGYVYDYWGQGTQVTVSS | low polyreactivity
39 | QVQLVESGGGLVQAGGSLRLSCASSGRICGYYAMGLYRQAPGKERELVAAITSGGSTYYADSVKGRFTISRDNEKNTVYFQMKSLKPEDTAVYFCNKVTRYSPYDYWGQGTQVTVSS | high polyreactivity
40 | QVQLVESGGGLVQAGGSLRLSCASSGRIFGPNAMGWYRQAPGKERELVAAITSGGRTKYADSVKGRFTISRDNAKNTVYLQMNSLKPEDTAVYYCATTAQYYWGQGTQVTVSS | high polyreactivity
41 | QVQLVESGGGLVQAGGSLRLSCASSGRIFHVYAMGWYRQAPGKERELVADITWSGGSTYYADSVKGRFTISRDNAKNTVYLQMNSLKPEDTAVYYCAASVLYGRHYSYGYWGQGTQVTVSS | high polyreactivity
